Reference: the RNAGym collection of RNA variant scans (doi:10.7554/elife.80360)

B1: Hairpin Ribozyme (parent)
chain: GUCCUCUUUCACGUGCGCGUGAAAGAGAGAAGUGAACCAGAGAAACACACGUUGUGGUAUAUUACCUGGUA

Variants of: B1
Experiment: self-cleavage, relative activity (ratio to wild type); higher = more cleavage; co-transcriptional

| Variant | self-cleavage |
| --- | --- |
| U33G U67C | 0.111 |
| U33G U67A | 0.146 |
| G32C C65G | 0.0614 |
| G32A G57C | 0.117 |
| G32U G56C | 0.152 |
| G34A C37U | 0.915 |
| G34C G69C | 0.564 |
| G34C A71C | 1.76 |
| U33A C48U | 0.0718 |
| U33A C48G | 0.123 |
| U33A A49U | 0.194 |
| G34C U63G | 0.262 |
| G34C U63A | 0.293 |
| U33A U70A | 0.0761 |
| G32C G69A | 0.149 |
| G32C U53G | 0.0828 |
| G32C U53A | 0.185 |
| G34C U70C | 1.42 |
| U33C U60A | 0.14 |
| U33C U60G | 0.0999 |
| U33C U63A | 0.142 |
| G32C U33C | 0.0618 |
| G32C U33G | 0.12 |
| U33G U70C | 0.101 |

| Variant | self-cleavage |
| --- | --- |
| G34C A49G | 1.42 |
| G32A U60A | 0.191 |
| G32C C46U | 0.109 |
| G34A U60G | 1 |
| U33G U55C | 0.117 |
| U33A U63G | 0.27 |
| U33A U63A | 0.0514 |
| U33C A35U | 0.162 |
| G34A A49G | 0.754 |
| G34A A49C | 0.12 |
| U33G G42C | 0.166 |
| G34C G68C | 0.484 |
| U33G G69U | 0.123 |
| U33G G69A | 0.0603 |
| G32A G69C | 0.163 |
| G34U G54A | 1.3 |
| U33A A45U | 0.2 |
| G32C C50U | 0.0935 |
| G34U G51U | 1.04 |
| U33C A41U | 0.159 |
| G34A A47U | 0.144 |
| G34A A47G | 0.302 |
| G34A A47C | 0.451 |
| G32A C65A | 0.0853 |

| Variant | self-cleavage |
| --- | --- |
| G32A C65G | 0.102 |
| G34A G69U | 0.208 |
| G34A U70C | 1.05 |
| U33A G56U | 0.156 |
| U33A G56A | 0.239 |
| G32U C38A | 0.0741 |
| G32U A64C | 0.258 |
| G32U A64G | 0.162 |
| G32U A64U | 0.126 |
| G34C C50G | 1.45 |
| G34C C50U | 1.36 |
| G32C A39C | 0.135 |
| U33G A43G | 0.282 |
| G34C C48G | 0.16 |
| U33C A47G | 0.219 |
| G32U U58C | 0.116 |
| U33A U58G | 0.135 |
| U33A U58A | 0.0766 |
| U33A A44U | 0.141 |
| U33C C65U | 0.2 |
| G32U U70G | 0.108 |
| G32U U70C | 0.138 |
| G32A A64C | 0.14 |
| G32U G69A | 0.115 |

| Variant | self-cleavage |
| --- | --- |
| G32U A61G | 0.0951 |
| G32U A45C | 0.153 |
| G34C G40U | 0.541 |
| G34A A43G | 0.0724 |
| G32U C66G | 0.19 |
| G32C C48U | 0.169 |
| G32U U60A | 0.17 |
| G32U U60C | 0.0374 |
| G34U A47C | 1.2 |
| U33C A36G | 0.0993 |
| G34A C48U | 0.191 |
| G34U C48U | 0.695 |
| G34U U58A | 1.5 |
| G34A A41U | 1.23 |
| G32C G68U | 0.135 |
| G32C G68C | 0.112 |
| U33G A71C | 0.307 |
| U33G A71U | 0.067 |
| G32U U53A | 0.126 |
| U33A C65U | 0.238 |
| U33A A71G | 0.178 |
| G32U A49U | 0.0712 |
| U33C U70G | 0.147 |
| U33C U70C | 0.0962 |

| Variant | self-cleavage |
| --- | --- |
| U33G C65G | 0.122 |
| G34A A35U | 0.569 |
| U33G U52A | 0.17 |
| U33G U52C | 0.145 |
| G32A C46U | 0.148 |
| G32A C46G | 0.103 |
| U33G A45G | 0.0332 |
| U33G A45C | 0.112 |
| G32U A39U | 0.125 |
| U33A G42U | 0.181 |
| U33A G42A | 0.168 |
| U33A A59G | 0.106 |
| U33A A35C | 0.0785 |
| G32A A43C | 0.0569 |
| G32A A43G | 0.141 |
| G34A U67G | 0.346 |
| G34A U67C | 0.463 |
| G34C C66A | 0.693 |
| G34A U53G | 1.17 |
| G34A A71C | 1.6 |
| G32C C66A | 0.0957 |
| G32C U58C | 0.0937 |
| U33C A61U | 0.163 |
| U33C A61C | 0.074 |

| Variant | self-cleavage |
| --- | --- |
| U33A U52C | 0.122 |
| U33A U52G | 0.111 |
| G32C G40U | 0.086 |
| G34U A45C | 0.213 |
| G34C U58A | 1.27 |
| G34C U58G | 1.09 |
| G34U U62G | 0.139 |
| U33C C48U | 0.118 |
| G34U A44C | 0.202 |
| U33A U55A | 0.0922 |
| G34C C37A | 0.898 |
| G34C C37G | 0.781 |
| G34C C65G | 1.07 |
| G34C C65U | 1.04 |
| U33A U62C | 0.184 |
| G32C U62C | 0.2 |
| U33G G54U | 0.0691 |
| U33G G54C | 0.145 |
| U33G G54A | 0.111 |
| G32A A39U | 0.108 |
| G32A A44U | 0.152 |
| G32A A44G | 0.143 |
| G32A A44C | 0.0922 |
| G34A A64U | 0.125 |

| Variant | self-cleavage |
| --- | --- |
| U33A C50U | 0.105 |
| U33A C50A | 0.18 |
| G34U G57A | 0.887 |
| G34U G57C | 0.552 |
| G32A U63A | 0.132 |
| G32C A71U | 0.157 |
| G32C A71C | 0.215 |
| G32C A71G | 0.238 |
| U33C U58C | 0.169 |
| U33G C46A | 0.0768 |
| U33G C46U | 0.16 |
| G34U C37U | 1.59 |
| G32A U67G | 0.0549 |
| G32C G34C | 0.101 |
| G32C U70A | 0.0808 |
| G32A G40C | 0.156 |
| G32C C37G | 0.15 |
| G32A U33C | 0.119 |
| U33G U53C | 0.204 |
| U33G U53G | 0.211 |
| G34C C46A | 0.238 |
| G34C C46G | 0.0437 |
| G34A U58G | 1.36 |
